B1: NLV2 TCR alpha chain (CDR3α only) (parent)
chain: AGPMKTSYDKVI
partner: NLVGMVATV
B2: NLV2 TCR alpha chain (CDR3α only) (parent)
chain: AGPMKTSYDKVI

Test [1] covers variants of B1. As to the kind of experiment: T-Switch: Jurkat TCRβ−/− cells expressing a CDR3 saturation-mutagenesis library, stained with two peptide-HLA-A*02:01 tetramers (original and novel peptide) plus anti-CD3, FACS-sorted into four gates, gDNA sequenced. The settings on record: with HLA-A*02:01 with peptide … (NLV 2-2, the original bait), tetramers 1 µg/mL, 30 min on ice, DP and SW gates expanded about 10 days between rounds ('two to three rounds of selection' in the Methods), gate SP: higher = more of the variant in the gate that binds the original peptide and not the novel one = retained original binding. Fold enrichment of the CDR3 variant in one FACS gate of a two-tetra, unresolved parent, parent is a CDR3 fragment, scale: fold enrichment, numbering: sequential-on-construct, sequence ….

The variants in test [2] derive from B2. The test is described as above. Particulars: tetramers 1 µg/mL, 30 min on ice, SP, DP and SW gates expanded about 10 days between rounds ('two to three rounds of selection' in the Methods), unresolved parent, parent is a CDR3 fragment, scale: fold enrichment, numbering: sequential-on-construct, sequence starts at 1.
Where [3] appears, read: with both tetramers (double-negative gate, binds neither): HLA-A*02:01 with … and with …, gate DN: OPPOSITE: higher = more of the variant in the gate that binds neither peptide = LESS binding (or no expression; inferred). Fold enrichment of the CDR3 variant in one FACS gate of a two-tetram.
The mark [4] stands for this setting: with both tetramers (double-positive gate): HLA-A*02:01 with … and with …, gate DP: higher = more of the variant in the gate that binds both peptides. Fold enrichment of the CDR3 variant in one FACS gate of a two-tetramer stain. SP/DP/SW gates were expanded and re-sorted bef.

[…] (CDR3 as printed); A1I derived by comparing it with the table's wild-type CDR3 AGPMKTSYDKVI: the enrichment in test [1] turned out to be 0.473.
Still for that read-out and setting: with […] (CDR3 as printed); A1D derived by comparing it with the table's wild-type CDR3 AGPMKTSYDKVI the figure was 0; with […] (CDR3 as printed); A1Q derived by comparing it with the table's wild-type CDR3 AGPMKTSYDKVI, 0.
With […] (CDR3 as printed); A1P derived by comparing it with the table's wild-type CDR3 AGPMKTSYDKVI, the enrichment in test [1] was found to be 2.46.
Take […] (CDR3 as printed); A1E derived by comparing it with the table's wild-type CDR3 AGPMKTSYDKVI: the enrichment in test [1] was 0.186.
On the same count and under the same terms, with […] (CDR3 as printed); A1G derived by comparing it with the table's wild-type CDR3 AGPMKTSYDKVI the figure was 0.
Consider […] (CDR3 as printed); A1C derived by comparing it with the table's wild-type CDR3 AGPMKTSYDKVI, for which, in test [1], the enrichment came out at 0.571.
Still for that read-out and setting: the value for […] (CDR3 as printed); A1L derived by comparing it with the table's wild-type CDR3 AGPMKTSYDKVI was 0; that for […] (CDR3 as printed); A1M derived by comparing it with the table's wild-type CDR3 AGPMKTSYDKVI was 0.103.
Consider […] (CDR3 as printed); A1H derived by comparing it with the table's wild-type CDR3 AGPMKTSYDKVI, for which, in test [1], the enrichment is 1.05.
With […] (CDR3 as printed); A1F derived by comparing it with the table's wild-type CDR3 AGPMKTSYDKVI, the enrichment in test [1] stood at 2.07.
Still for that read-out and setting: the value for […] (CDR3 as printed); A1N derived by comparing it with the table's wild-type CDR3 AGPMKTSYDKVI was 0.476; that for […] (CDR3 as printed); A1K derived by comparing it with the table's wild-type CDR3 AGPMKTSYDKVI was 0.
As for […] (CDR3 as printed); T6D derived by comparing it with the table's wild-type CDR3 AGPMKTSYDKVI, the values for the enrichment in test [2] (setting [3]) and in test [2] (setting [4]) were 1.18 and 0, respectively.
On the same counts, the results for […] (CDR3 as printed); P3C derived by comparing it with the table's wild-type CDR3 AGPMKTSYDKVI are 0.884 and 0.
On the same counts, the results for […] (CDR3 as printed); P3I derived by comparing it with the table's wild-type CDR3 AGPMKTSYDKVI are 1.09 and 0.
For […] (CDR3 as printed); P3V derived by comparing it with the table's wild-type CDR3 AGPMKTSYDKVI the same measures were 1.02 and 0.
For the variant […] (CDR3 as printed); Y8F derived by comparing it with the table's wild-type CDR3 AGPMKTSYDKVI, the values for the enrichment in test [2] (setting [3]) and in test [2] (setting [4]) were 1.1 and 0, respectively.
For […] (CDR3 as printed); Y8L derived by comparing it with the table's wild-type CDR3 AGPMKTSYDKVI the same measures were 1 and 0.
With […] (CDR3 as printed); M4Q derived by comparing it with the table's wild-type CDR3 AGPMKTSYDKVI, the enrichment in test [2] (setting [3]) was 0.551; in test [2] (setting [4]) it was 0.
On the same counts, the results for […] (CDR3 as printed); M4T derived by comparing it with the table's wild-type CDR3 AGPMKTSYDKVI are 0.518 and 0.
As to […] (CDR3 as printed); T6Y derived by comparing it with the table's wild-type CDR3 AGPMKTSYDKVI, the enrichment was 1.48 in test [2] (setting [3]) and 0 in test [2] (setting [4]).
For […] (CDR3 as printed); Y8N derived by comparing it with the table's wild-type CDR3 AGPMKTSYDKVI, the enrichment in test [2] (setting [3]) was 0.932; in test [2] (setting [4]), 0.
For the variant […] (CDR3 as printed); Y8H derived by comparing it with the table's wild-type CDR3 AGPMKTSYDKVI, the enrichment in test [2] (setting [3]) stood at 0.969; in test [2] (setting [4]) it was 0.
Turning to […] (CDR3 as printed); T6P derived by comparing it with the table's wild-type CDR3 AGPMKTSYDKVI, the enrichment came to 0.299 in test [2] (setting [3]) and 0 in test [2] (setting [4]).
[…] (CDR3 as printed); V11M derived by comparing it with the table's wild-type CDR3 AGPMKTSYDKVI: the enrichment in test [2] (setting [3]) was determined as 1.2; in test [2] (setting [4]), 0.
On the same counts, the results for […] (CDR3 as printed); M4W derived by comparing it with the table's wild-type CDR3 AGPMKTSYDKVI are 0.861 and 0.
Consider […] (CDR3 as printed); T6F derived by comparing it with the table's wild-type CDR3 AGPMKTSYDKVI, for which the enrichment in test [2] (setting [3]) is 1.26; in test [2] (setting [4]), 0.
For […] (CDR3 as printed); V11G derived by comparing it with the table's wild-type CDR3 AGPMKTSYDKVI the same measures were 0.956 and 0.
Consider […] (CDR3 as printed); V11C derived by comparing it with the table's wild-type CDR3 AGPMKTSYDKVI, for which the enrichment in test [2] (setting [3]) turned out to be 1.08; in test [2] (setting [4]), 0.
On the same counts, the results for […] (CDR3 as printed); Y8R derived by comparing it with the table's wild-type CDR3 AGPMKTSYDKVI are 1.17 and 0.
On the same counts, the results for […] (CDR3 as printed); V11Y derived by comparing it with the table's wild-type CDR3 AGPMKTSYDKVI are 1.04 and 0.
Take […] (CDR3 as printed); T6L derived by comparing it with the table's wild-type CDR3 AGPMKTSYDKVI: the enrichment in test [2] (setting [3]) is 1.1; in test [2] (setting [4]), 0.
For […] (CDR3 as printed); P3L derived by comparing it with the table's wild-type CDR3 AGPMKTSYDKVI the same measures were 1.13 and 0.
As for […] (CDR3 as printed); M4R derived by comparing it with the table's wild-type CDR3 AGPMKTSYDKVI, the enrichment is 0.913 in test [2] (setting [3]) and 0 in test [2] (setting [4]).

Values taken from article PMC13397619.
